Results: PMC9352680, “A comprehensive thermodynamic model for RNA binding by the Saccharomyces cerevisiae Pumilio protein PUF4”

B1: Ic_S2_P4E.1_K4.1_C4.1_H4.1_A4.1_[T5C]_[A6T]_F4.1_[T8G]_[A9G]_T4.1 (ssRNA)
RNA: UUUGAUUAAUAUGAUAUCGUUCUUUCUUGUACUUGGUUCUUUCUCGAUAUCAUAUUAAUCUUU
B2: Ic_S2_P4E.1_K4.1_C4.1_H4.1_A4.1_[T5C]_[A6T]_F4.1_[A9C]_T4.1 (ssRNA)
RNA: UUUGAUUAAUAUGAUAUCGUUCUUUCUUGUACUUUCUUCUUUCUCGAUAUCAUAUUAAUCUUU
B3: Ic_S2_P4E.1_K4.1_C4.1_H4.1_A4.1_[T5C]_[A6T]_F4.1_[T8A]_[A9T]_T4.1 (ssRNA)
RNA: UUUGAUUAAUAUGAUAUCGUUCUUUCUUGUACUUAUUUCUUUCUCGAUAUCAUAUUAAUCUUU
B4: Ic_S2_P4E.1_K4.1_C4.1_H4.1_A4.1_[T5C]_[T7G]_F4.1_[T8C]_T4.1 (ssRNA)
RNA: UUUGAUUAAUAUGAUAUCGUUCUUUCUUGUACAGCAUUCUUUCUCGAUAUCAUAUUAAUCUUU
B5: Ic_S2_P4E.1_K4.1_C4.1_H4.1_A4.1_[T5C]_F4.1_[T8A]_[A9C]_T4.1 (ssRNA)
RNA: UUUGAUUAAUAUGAUAUCGUUCUUUCUUGUACAUACUUCUUUCUCGAUAUCAUAUUAAUCUUU
B6: Ic_S2_P4E.1_K4.1_C4.1_H4.1_A4.1_[T5A]_[A6C]_[T7C]_F4.1_[T8C]_T4.1 (ssRNA)
RNA: UUUGAUUAAUAUGAUAUCGUUCUUUCUUGUAACCCAUUCUUUCUCGAUAUCAUAUUAAUCUUU
B7: Ic_S2_P4E.1_K4.1_C4.1_H4.1_A4.1_[T5C]_[T7A]_F4.1_[T8C]_[A9G]_T4.1 (ssRNA)
RNA: UUUGAUUAAUAUGAUAUCGUUCUUUCUUGUACAACGUUCUUUCUCGAUAUCAUAUUAAUCUUU
B8: Ic_S2_P4E.1_K4.1_C4.1_H4.1_A4.1_[T5A]_[A6C]_[T7G]_F4.1_[T8C]_[A9C]_T4.1 (ssRNA)
RNA: UUUGAUUAAUAUGAUAUCGUUCUUUCUUGUAACGCCUUCUUUCUCGAUAUCAUAUUAAUCUUU
B9: Ic_S2_P4E.1_K4.1_C4.1_H4.1_A4.1_[T5A]_[A6C]_[T7C]_F4.1_[T8A]_[A9C]_T4.1 (ssRNA)
RNA: UUUGAUUAAUAUGAUAUCGUUCUUUCUUGUAACCACUUCUUUCUCGAUAUCAUAUUAAUCUUU
B10: Ic_S2_P4E.1_K4.1_C4.1_H4.1_A4.1_[T5A]_[A6C]_[T7G]_F4.1_[T8C]_T4.1 (ssRNA)
RNA: UUUGAUUAAUAUGAUAUCGUUCUUUCUUGUAACGCAUUCUUUCUCGAUAUCAUAUUAAUCUUU
B11: Ic_S2_P4E.1_K4.1_C4.1_H4.1_A4.1_[T5C]_[A6T]_F4.1_[T8A]_T4.1 (ssRNA)
RNA: UUUGAUUAAUAUGAUAUCGUUCUUUCUUGUACUUAAUUCUUUCUCGAUAUCAUAUUAAUCUUU
B12: Ic_S2_P4E.1_K4.1_C4.1_H4.1_A4.1_[T5A]_[A6C]_[T7A]_F4.1_[T8A]_[A9T]_T4.1 (ssRNA)
RNA: UUUGAUUAAUAUGAUAUCGUUCUUUCUUGUAACAAUUUCUUUCUCGAUAUCAUAUUAAUCUUU
B13: Ic_S2_P4E.1_K4.1_C4.1_H4.1_A4.1_[T5C]_[A6T]_F4.1_[T8G]_[A9C]_T4.1 (ssRNA)
RNA: UUUGAUUAAUAUGAUAUCGUUCUUUCUUGUACUUGCUUCUUUCUCGAUAUCAUAUUAAUCUUU
B14: Ic_S2_P4E.1_K4.1_C4.1_H4.1_A4.1_[T5A]_[A6C]_[T7C]_F4.1_[A9C]_T4.1 (ssRNA)
RNA: UUUGAUUAAUAUGAUAUCGUUCUUUCUUGUAACCUCUUCUUUCUCGAUAUCAUAUUAAUCUUU
B15: Ic_S2_P4E.1_K4.1_C4.1_H4.1_A4.1_[T5C]_[A6T]_F4.1_[T8A]_[A9G]_T4.1 (ssRNA)
RNA: UUUGAUUAAUAUGAUAUCGUUCUUUCUUGUACUUAGUUCUUUCUCGAUAUCAUAUUAAUCUUU
B16: Ic_S2_P4E.1_K4.1_C4.1_H4.1_A4.1_[T5C]_[T7C]_F4.1_[A9T]_T4.1 (ssRNA)
RNA: UUUGAUUAAUAUGAUAUCGUUCUUUCUUGUACACUUUUCUUUCUCGAUAUCAUAUUAAUCUUU
B17: Ic_S2_P4E.1_K4.1_C4.1_H4.1_A4.1_[T5C]_[T7C]_F4.1_[T8A]_T4.1 (ssRNA)
RNA: UUUGAUUAAUAUGAUAUCGUUCUUUCUUGUACACAAUUCUUUCUCGAUAUCAUAUUAAUCUUU
B18: Ic_S2_P4E.1_K4.1_C4.1_H4.1_A4.1_[T5A]_[A6C]_[T7C]_F4.1_[A9T]_T4.1 (ssRNA)
RNA: UUUGAUUAAUAUGAUAUCGUUCUUUCUUGUAACCUUUUCUUUCUCGAUAUCAUAUUAAUCUUU
B19: Ic_S2_P4E.1_K4.1_C4.1_H4.1_A4.1_[T5C]_[A6T]_F4.1_[A9G]_T4.1 (ssRNA)
RNA: UUUGAUUAAUAUGAUAUCGUUCUUUCUUGUACUUUGUUCUUUCUCGAUAUCAUAUUAAUCUUU
B20: Ic_S2_P4E.1_K4.1_C4.1_H4.1_A4.1_[T5A]_[A6C]_[T7A]_F4.1_[T8G]_[A9C]_T4.1 (ssRNA)
RNA: UUUGAUUAAUAUGAUAUCGUUCUUUCUUGUAACAGCUUCUUUCUCGAUAUCAUAUUAAUCUUU
B21: Ic_S2_P4E.1_K4.1_C4.1_H4.1_A4.1_[T5C]_[T7C]_F4.1_[T8C]_T4.1 (ssRNA)
RNA: UUUGAUUAAUAUGAUAUCGUUCUUUCUUGUACACCAUUCUUUCUCGAUAUCAUAUUAAUCUUU
B22: Ic_S2_P4E.1_K4.1_C4.1_H4.1_A4.1_[T5C]_[A6T]_F4.1_[T8G]_[A9T]_T4.1 (ssRNA)
RNA: UUUGAUUAAUAUGAUAUCGUUCUUUCUUGUACUUGUUUCUUUCUCGAUAUCAUAUUAAUCUUU
B23: Ic_S2_P4E.1_K4.1_C4.1_H4.1_A4.1_[T5C]_[T7A]_F4.1_[T8C]_T4.1 (ssRNA)
RNA: UUUGAUUAAUAUGAUAUCGUUCUUUCUUGUACAACAUUCUUUCUCGAUAUCAUAUUAAUCUUU

The binders below were run against T1, PUF4 RNA-binding domain (Saccharomyces cerevisiae, UniProt P25339 537-888) (assay: Mg; RNA-MaP; 20 mM Na-HEPES pH 7.4, 30 mM KOAc, 0.75 mM MgCl2, 0.1% Tween-20, 5% glycerol, 0.1 mg/mL BSA, 2 mM DTT; 25 C; 0.0125-409.6 nM protein). Details: tags: N-His6-TEV cleaved; C-SNAP kept, Cy3B-labelled; label: tethered on chip by stalled RNA polymerase.
T1 sequence: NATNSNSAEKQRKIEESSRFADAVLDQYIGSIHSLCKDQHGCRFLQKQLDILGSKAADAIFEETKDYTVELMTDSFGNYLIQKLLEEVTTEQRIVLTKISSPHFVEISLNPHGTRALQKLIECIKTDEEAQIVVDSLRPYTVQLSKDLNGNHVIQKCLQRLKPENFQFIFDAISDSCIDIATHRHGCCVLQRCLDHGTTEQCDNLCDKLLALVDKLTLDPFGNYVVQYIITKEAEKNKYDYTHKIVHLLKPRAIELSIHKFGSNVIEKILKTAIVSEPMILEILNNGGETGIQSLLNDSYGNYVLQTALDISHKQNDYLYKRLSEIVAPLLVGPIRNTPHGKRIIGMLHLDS
With B1 the Kd was 430 nM. Work on B2 yielded a Kd of 13.3 nM. B3 gave a Kd of 13.6 nM. With B4 the Kd was 206 nM. Work on B5 yielded a Kd of 4.76 nM. With B6 the Kd was 666 nM. Work on B7 yielded a Kd of 55.1 nM. B8 was tested, and the Kd was 851 nM. Work on B9 yielded a Kd of 1570 nM. For B10, the Kd was 747 nM. B11 gave a Kd of 22.9 nM. With B12 the Kd was 45.2 nM. B13 gave a Kd of 365 nM. B14 showed a Kd of 44.4 nM. With B15 the Kd was 141 nM. Work on B16 yielded a Kd of 2.92 nM. With B17 the Kd was 13.8 nM. Work on B18 yielded a Kd of 24.6 nM. With B19 the Kd was 13.1 nM. B20 showed a Kd of 777 nM. With B21 the Kd was 14 nM. B22 was tested, and the Kd was 72.9 nM. B23 was tested, and the Kd was 17.4 nM.
